Results: publication PMC2188490
Read-outs that look alike come from different tables or passages of the source.

Legend:
Assay in all cases: kinetic titration of prothrombinase activity
[1] = target: factor V/Va (mixture of nonactivated and activated factor V) purified from rabbit plasma (rabbit)
[2] = target: factor V/Va (mixture of nonactivated and activated factor V) purified from rabbit plasma (rabbit); remark: listed apart in the source
[3] = target: high-affinity factor Xa receptor on cultured rabbit alveolar macrophages (rabbit (endogenous in alveolar macrophages))

With factor Xa (enzyme) the Kd [1] was 0.821 nM, the Kd [2] was 0.603 nM and the Kd [3] was 0.211 nM.
